Measured values reported in patent US20220356247A1 (NANJING IMMUNOPHAGE BIOTECH, published 2022).
Substitutions are numbered along the chain they refer to.

Target: T1, human ROR1 (human, UniProt Q01973 30-403, limits assumed)
T1 construct: also called receptor tyrosine kinase-like orphan receptor 1
Assay: affinity for human ROR1, method not stated

T1 sequence (Q01973 30-403 limits assumed): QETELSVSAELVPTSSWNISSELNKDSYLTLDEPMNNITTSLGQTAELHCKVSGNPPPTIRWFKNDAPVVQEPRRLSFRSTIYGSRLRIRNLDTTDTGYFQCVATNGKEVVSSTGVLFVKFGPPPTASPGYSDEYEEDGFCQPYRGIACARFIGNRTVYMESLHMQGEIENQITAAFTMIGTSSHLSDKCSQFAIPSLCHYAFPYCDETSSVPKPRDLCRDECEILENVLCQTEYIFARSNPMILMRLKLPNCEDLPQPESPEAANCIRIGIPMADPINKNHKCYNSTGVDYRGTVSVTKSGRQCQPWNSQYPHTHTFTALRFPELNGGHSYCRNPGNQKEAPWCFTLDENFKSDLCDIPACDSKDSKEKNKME

B1: anti-ROR1 antibody clone G6 (antibody, V domains shown)
VH: EVQLVESGGGVVQPGGSLRLSCAASGFTFDDYAMHWVRQAPGKGLEWVSLISGDGGSTYYADSVKGRFTISRDNAKNSLYLQMNSLRAEDTAVYYCARDNWNDVYYYYGMDVWGQGTTVTVSS
VL: DIQLTQSPSSLSASIGDTVTISCQASRDISDYLNWYQHKPGKAPKLLIYDASNLATGVPSRFSGSGSGTDFTLTIKSLQPEDVATYFCQQDDLLPLTFGGGTKVDIK
notes: Fully human clone from a naive phage library
  Kd: 43.7 nM

B2: anti-ROR1 antibody clone C3 (antibody, V domains shown)
VH: QVQLQESGPGLVKPSETLSLTCTVSGGSISSYYWSWIRQLPGKGLEWIGYMHYSGSTSYNPSLKGRLTISVDTSTNQFSLKLGSVTAADTAVYYCARYYYHDSSGYYSYFDYWGQGTLVTVSS
VL: EIVLTQSPGTLSLSPGERATLSCRASQSVSSYLAWYQQKAGQAPRLLIYDASNRASGIPARFSGSGSGTDFTLTISSLEPEDFAVYYCQQRSNWPPTFGGGTKVEIK
notes: as for B1
  Kd: 3.25 nM

B3: anti-ROR1 antibody clone G3 (antibody, V domains shown)
VH: QVQLQQWGAGLLKPSETLSLTCAVYGGSFSGYYWSWIRQPPGKGLEWIGEINHSGSTSYNPSLKSRVTISVDTSKNQFSLKLSSVTAADTAVYYCARGHSSGWYRRYFDLWGRGTLVTVSS
VL: B2 VL with G9A, A40P, S56T, R61K
notes: as for B1
  Kd: 4.48 nM
